Experimental data published in patent US20060045881A1, “Anti-cancer vaccines” (Board of Regents, The University of Texas System, priority 2004, published 2006).

Target: HLA-A2.1 heavy chain with I125-labeled beta2-microglobulin (heterotrimer complex assay) (human)
Assay: dissociation of I125-labeled beta2-microglobulin from heavy chain/peptide/beta2m complex, HPLC gel filtration

Work on “HTLV-1 Tax peptide (aa 11-19) (from UniProt P03409 11-19) (peptide; other documents disagree on this pair)” yielded a T1/2 (binding half-life) of 133 h.
